Data on five molecules can be found in US20130005646A1 (Novo Nordisk, published 2013).

Starred links: 1 amine or outer side, 2 acyl side, 3 side chain; linkers in the order of their positions; H or OH if unused. Positions of bridges follow the written chain, without caps; N, C: chain ends. *: point of attachment. X1 = (S)‑4‑Carboxy‑4‑(19-carboxynonadecanoylamino)butyryl, O=C(O)CCCCCCCCCCCCCCCCCCC(=O)N[C@@H](CCC(=O)*)C(=O)O; C20 diacid = O=C(O)CCCCCCCCCCCCCCCCCCC(=O)*; γGlu = O=C(O)[C@H](CCC(=O)[*:2])N[*:1]

Test [1] addresses T1, human amylin 3(a) receptor (human calcitonin receptor + RAMP-3) (human, UniProt P30988 25-474; O60896 24-148).
T1 sequence (looked up) 1: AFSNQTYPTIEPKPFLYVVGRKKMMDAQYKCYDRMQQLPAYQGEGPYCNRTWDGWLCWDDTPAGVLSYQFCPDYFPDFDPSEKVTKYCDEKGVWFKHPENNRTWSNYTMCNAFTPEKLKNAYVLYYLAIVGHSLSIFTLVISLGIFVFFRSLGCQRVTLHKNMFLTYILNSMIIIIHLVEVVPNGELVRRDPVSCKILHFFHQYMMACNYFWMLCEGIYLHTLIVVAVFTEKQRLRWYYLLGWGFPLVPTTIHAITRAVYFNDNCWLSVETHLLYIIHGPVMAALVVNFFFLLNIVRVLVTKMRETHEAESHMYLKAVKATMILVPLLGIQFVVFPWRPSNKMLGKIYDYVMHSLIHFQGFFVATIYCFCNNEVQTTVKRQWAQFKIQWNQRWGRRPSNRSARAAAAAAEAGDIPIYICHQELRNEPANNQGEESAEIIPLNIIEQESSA
T1 sequence (looked up) 2: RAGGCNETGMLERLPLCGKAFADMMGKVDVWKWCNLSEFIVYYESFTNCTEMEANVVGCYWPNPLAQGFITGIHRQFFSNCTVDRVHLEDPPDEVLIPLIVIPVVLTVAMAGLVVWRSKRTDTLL
Put plainly: cell-based or functional assay.

Test [2] has as its target T2, human calcitonin (a) receptor (human, UniProt P30988 25-474).
T2 sequence (looked up): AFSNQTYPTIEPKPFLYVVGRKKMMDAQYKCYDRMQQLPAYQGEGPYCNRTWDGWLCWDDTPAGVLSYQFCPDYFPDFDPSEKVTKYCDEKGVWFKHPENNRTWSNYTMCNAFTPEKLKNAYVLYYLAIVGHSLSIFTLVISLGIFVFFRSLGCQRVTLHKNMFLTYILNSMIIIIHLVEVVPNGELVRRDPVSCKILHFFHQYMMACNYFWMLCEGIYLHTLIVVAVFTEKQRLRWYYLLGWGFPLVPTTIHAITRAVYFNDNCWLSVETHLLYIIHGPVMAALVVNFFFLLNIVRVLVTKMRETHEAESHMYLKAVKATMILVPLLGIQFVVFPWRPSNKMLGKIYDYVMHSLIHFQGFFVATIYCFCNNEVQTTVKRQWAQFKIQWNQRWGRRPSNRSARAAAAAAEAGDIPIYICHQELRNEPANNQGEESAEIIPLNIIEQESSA
Put plainly: cell-based or functional assay.

B1: N-alpha-[(S)-4-Carboxy-4-(19-carboxynonadecanoylamino)butyryl]-[His1,Glu14,Arg17,Ser21,Ser28,Ser29,His35]-pramlintide (peptide)
peptide: X1-HCNTATCATQRLAEFLRHSSSNFGPILSSTNVGSHTY-NH2
modifications: disulfide 2-7
SMILES: CC[C@H](C)[C@H](NC(=O)[C@@H]1CCCN1C(=O)CNC(=O)[C@H](Cc1ccccc1)NC(=O)[C@H](CC(N)=O)NC(=O)[C@H](CO)NC(=O)[C@H](CO)NC(=O)[C@H](CO)NC(=O)[C@H](Cc1c[nH]cn1)NC(=O)[C@H](CCCNC(=N)N)NC(=O)[C@H](CC(C)C)NC(=O)[C@H](Cc1ccccc1)NC(=O)[C@H](CCC(=O)O)NC(=O)[C@H](C)NC(=O)[C@H](CC(C)C)NC(=O)[C@H](CCCNC(=N)N)NC(=O)[C@H](CCC(N)=O)NC(=O)[C@@H](NC(=O)[C@H](C)NC(=O)[C@@H]1CSSC[C@H](NC(=O)[C@H](Cc2c[nH]cn2)NC(=O)CC[C@H](NC(=O)CCCCCCCCCCCCCCCCCCC(=O)O)C(=O)O)C(=O)N[C@@H](CC(N)=O)C(=O)N[C@@H]([C@@H](C)O)C(=O)N[C@@H](C)C(=O)N[C@@H]([C@@H](C)O)C(=O)N1)[C@@H](C)O)C(=O)N[C@@H](CC(C)C)C(=O)N[C@@H](CO)C(=O)N[C@@H](CO)C(=O)N[C@H](C(=O)N[C@@H](CC(N)=O)C(=O)N[C@H](C(=O)NCC(=O)N[C@@H](CO)C(=O)N[C@@H](Cc1c[nH]cn1)C(=O)N[C@H](C(=O)N[C@@H](Cc1ccc(O)cc1)C(N)=O)[C@@H](C)O)C(C)C)[C@@H](C)O
Regarding B1, the “Amylin receptor human EC50” value in test [1] was determined as 0.394 nM. Besides, the “CTa receptor human EC50” value in test [2] amounted to 0.57 nM.

B2: N-alpha-[(S)-4-Carboxy-4-(19-carboxynonadecanoylamino)butyryl]-[His1,Glu14,Ser21,Ser28,Ser29,His35]-pramlintide (peptide)
peptide: {C20 diacid-γGlu}-HCNTATCATQRLAEFLVHSSSNFGPILSSTNVGSHTY-NH2
modifications: disulfide 2-7
SMILES: CC[C@H](C)[C@H](NC(=O)[C@@H]1CCCN1C(=O)CNC(=O)[C@H](Cc1ccccc1)NC(=O)[C@H](CC(N)=O)NC(=O)[C@H](CO)NC(=O)[C@H](CO)NC(=O)[C@H](CO)NC(=O)[C@H](Cc1c[nH]cn1)NC(=O)[C@@H](NC(=O)[C@H](CC(C)C)NC(=O)[C@H](Cc1ccccc1)NC(=O)[C@H](CCC(=O)O)NC(=O)[C@H](C)NC(=O)[C@H](CC(C)C)NC(=O)[C@H](CCCNC(=N)N)NC(=O)[C@H](CCC(N)=O)NC(=O)[C@@H](NC(=O)[C@H](C)NC(=O)[C@@H]1CSSC[C@H](NC(=O)[C@H](Cc2c[nH]cn2)NC(=O)CC[C@H](NC(=O)CCCCCCCCCCCCCCCCCCC(=O)O)C(=O)O)C(=O)N[C@@H](CC(N)=O)C(=O)N[C@@H]([C@@H](C)O)C(=O)N[C@@H](C)C(=O)N[C@@H]([C@@H](C)O)C(=O)N1)[C@@H](C)O)C(C)C)C(=O)N[C@@H](CC(C)C)C(=O)N[C@@H](CO)C(=O)N[C@@H](CO)C(=O)N[C@H](C(=O)N[C@@H](CC(N)=O)C(=O)N[C@H](C(=O)NCC(=O)N[C@@H](CO)C(=O)N[C@@H](Cc1c[nH]cn1)C(=O)N[C@H](C(=O)N[C@@H](Cc1ccc(O)cc1)C(N)=O)[C@@H](C)O)C(C)C)[C@@H](C)O
Regarding B2, the “Amylin receptor human EC50” value in test [1] is 0.921 nM. The “CTa receptor human EC50” value in test [2] came to 0.349 nM.

B3: N-alpha-[(S)-4-Carboxy-4-(19-carboxynonadecanoylamino)butyryl]-[Ser1,Glu14,His17,His35]-pramlintide (peptide)
peptide: {C20 diacid-γGlu}-SCNTATCATQRLAEFLHHSSNNFGPILPPTNVGSHTY-NH2
modifications: disulfide 2-7
SMILES: CC[C@H](C)[C@H](NC(=O)[C@@H]1CCCN1C(=O)CNC(=O)[C@H](Cc1ccccc1)NC(=O)[C@H](CC(N)=O)NC(=O)[C@H](CC(N)=O)NC(=O)[C@H](CO)NC(=O)[C@H](CO)NC(=O)[C@H](Cc1c[nH]cn1)NC(=O)[C@H](Cc1c[nH]cn1)NC(=O)[C@H](CC(C)C)NC(=O)[C@H](Cc1ccccc1)NC(=O)[C@H](CCC(=O)O)NC(=O)[C@H](C)NC(=O)[C@H](CC(C)C)NC(=O)[C@H](CCCNC(=N)N)NC(=O)[C@H](CCC(N)=O)NC(=O)[C@@H](NC(=O)[C@H](C)NC(=O)[C@@H]1CSSC[C@H](NC(=O)[C@H](CO)NC(=O)CC[C@H](NC(=O)CCCCCCCCCCCCCCCCCCC(=O)O)C(=O)O)C(=O)N[C@@H](CC(N)=O)C(=O)N[C@@H]([C@@H](C)O)C(=O)N[C@@H](C)C(=O)N[C@@H]([C@@H](C)O)C(=O)N1)[C@@H](C)O)C(=O)N[C@@H](CC(C)C)C(=O)N1CCC[C@H]1C(=O)N1CCC[C@H]1C(=O)N[C@H](C(=O)N[C@@H](CC(N)=O)C(=O)N[C@H](C(=O)NCC(=O)N[C@@H](CO)C(=O)N[C@@H](Cc1c[nH]cn1)C(=O)N[C@H](C(=O)N[C@@H](Cc1ccc(O)cc1)C(N)=O)[C@@H](C)O)C(C)C)[C@@H](C)O
As for B3, in test [1], the “Amylin receptor human EC50” value worked out at 0.225 nM. Further, the “CTa receptor human EC50” value in test [2] was determined as 0.171 nM.

B4: N-alpha-[(S)-4-Carboxy-4-(19-carboxynonadecanoylamino)butyryl]-[His1,Glu14,Pro37]-pramlintide (peptide)
peptide: {C20 diacid-γGlu}-HCNTATCATQRLAEFLVHSSNNFGPILPPTNVGSNTP-NH2
modifications: disulfide 2-7
SMILES: CC[C@H](C)[C@H](NC(=O)[C@@H]1CCCN1C(=O)CNC(=O)[C@H](Cc1ccccc1)NC(=O)[C@H](CC(N)=O)NC(=O)[C@H](CC(N)=O)NC(=O)[C@H](CO)NC(=O)[C@H](CO)NC(=O)[C@H](Cc1c[nH]cn1)NC(=O)[C@@H](NC(=O)[C@H](CC(C)C)NC(=O)[C@H](Cc1ccccc1)NC(=O)[C@H](CCC(=O)O)NC(=O)[C@H](C)NC(=O)[C@H](CC(C)C)NC(=O)[C@H](CCCNC(=N)N)NC(=O)[C@H](CCC(N)=O)NC(=O)[C@@H](NC(=O)[C@H](C)NC(=O)[C@@H]1CSSC[C@H](NC(=O)[C@H](Cc2c[nH]cn2)NC(=O)CC[C@H](NC(=O)CCCCCCCCCCCCCCCCCCC(=O)O)C(=O)O)C(=O)N[C@@H](CC(N)=O)C(=O)N[C@@H]([C@@H](C)O)C(=O)N[C@@H](C)C(=O)N[C@@H]([C@@H](C)O)C(=O)N1)[C@@H](C)O)C(C)C)C(=O)N[C@@H](CC(C)C)C(=O)N1CCC[C@H]1C(=O)N1CCC[C@H]1C(=O)N[C@H](C(=O)N[C@@H](CC(N)=O)C(=O)N[C@H](C(=O)NCC(=O)N[C@@H](CO)C(=O)N[C@@H](CC(N)=O)C(=O)N[C@H](C(=O)N1CCC[C@H]1C(N)=O)[C@@H](C)O)C(C)C)[C@@H](C)O
Consider B4, for which the “Amylin receptor human EC50” value in test [1] stood at 0.0845 nM. Also, in test [2], the “CTa receptor human EC50” value is 0.0725 nM.

B5: N-alpha-[(S)-4-Carboxy-4-(19-carboxynonadecanoylamino)butyryl]-[des1,Glu14,Pro37]-pramlintide (peptide)
peptide: {C20 diacid-γGlu}-CNTATCATQRLAEFLVHSSNNFGPILPPTNVGSNTP-NH2
modifications: disulfide 1-6
SMILES: CC[C@H](C)[C@H](NC(=O)[C@@H]1CCCN1C(=O)CNC(=O)[C@H](Cc1ccccc1)NC(=O)[C@H](CC(N)=O)NC(=O)[C@H](CC(N)=O)NC(=O)[C@H](CO)NC(=O)[C@H](CO)NC(=O)[C@H](Cc1c[nH]cn1)NC(=O)[C@@H](NC(=O)[C@H](CC(C)C)NC(=O)[C@H](Cc1ccccc1)NC(=O)[C@H](CCC(=O)O)NC(=O)[C@H](C)NC(=O)[C@H](CC(C)C)NC(=O)[C@H](CCCNC(=N)N)NC(=O)[C@H](CCC(N)=O)NC(=O)[C@@H](NC(=O)[C@H](C)NC(=O)[C@@H]1CSSC[C@H](NC(=O)CC[C@H](NC(=O)CCCCCCCCCCCCCCCCCCC(=O)O)C(=O)O)C(=O)N[C@@H](CC(N)=O)C(=O)N[C@@H]([C@@H](C)O)C(=O)N[C@@H](C)C(=O)N[C@@H]([C@@H](C)O)C(=O)N1)[C@@H](C)O)C(C)C)C(=O)N[C@@H](CC(C)C)C(=O)N1CCC[C@H]1C(=O)N1CCC[C@H]1C(=O)N[C@H](C(=O)N[C@@H](CC(N)=O)C(=O)N[C@H](C(=O)NCC(=O)N[C@@H](CO)C(=O)N[C@@H](CC(N)=O)C(=O)N[C@H](C(=O)N1CCC[C@H]1C(N)=O)[C@@H](C)O)C(C)C)[C@@H](C)O
As for B5, the “Amylin receptor human EC50” value in test [1] was 0.088 nM. In addition, in test [2], the “CTa receptor human EC50” value is 0.0735 nM.
